Measurements: PMC4299599, “Quantification of cytosolic interactions identifies Ede1 oligomers as key organizers of endocytosis” (Molecular Systems Biology, 2014)
One block for each molecule: values may come before it.

Key:
[1] = biological target: Las17 polyproline motif (Saccharomyces cerevisiae) (UniProt Q12446); settings: cited from earlier work
Apl3 = biological target: T1, Apl3 (S. cerevisiae, UniProt P38065 1-1025); test: fluorescence cross-correlation spectroscopy (FCCS); in the cytoplasm of living yeast cells; first-named protein green (3myeGFP or 1myeGFP; eGFP for Don1), second red (3mCherry); self-interaction in diploid strains with one allele of each colour; apparent or effective KD (Kdeff) from single-cell measurements; only Kdeff values < 1000 nM are shown; values for self-interactions are upper limits; settings: partners not purified
T1 construct: Apl3, subunit of the AP2 complex, S. cerevisiae; also called Apl3-3myeGFP; Apl3-3mCherry; source: chromosomally tagged at the endogenous locus, in the cytoplasm of living S. cerevisiae cells
T1 sequence (looked up): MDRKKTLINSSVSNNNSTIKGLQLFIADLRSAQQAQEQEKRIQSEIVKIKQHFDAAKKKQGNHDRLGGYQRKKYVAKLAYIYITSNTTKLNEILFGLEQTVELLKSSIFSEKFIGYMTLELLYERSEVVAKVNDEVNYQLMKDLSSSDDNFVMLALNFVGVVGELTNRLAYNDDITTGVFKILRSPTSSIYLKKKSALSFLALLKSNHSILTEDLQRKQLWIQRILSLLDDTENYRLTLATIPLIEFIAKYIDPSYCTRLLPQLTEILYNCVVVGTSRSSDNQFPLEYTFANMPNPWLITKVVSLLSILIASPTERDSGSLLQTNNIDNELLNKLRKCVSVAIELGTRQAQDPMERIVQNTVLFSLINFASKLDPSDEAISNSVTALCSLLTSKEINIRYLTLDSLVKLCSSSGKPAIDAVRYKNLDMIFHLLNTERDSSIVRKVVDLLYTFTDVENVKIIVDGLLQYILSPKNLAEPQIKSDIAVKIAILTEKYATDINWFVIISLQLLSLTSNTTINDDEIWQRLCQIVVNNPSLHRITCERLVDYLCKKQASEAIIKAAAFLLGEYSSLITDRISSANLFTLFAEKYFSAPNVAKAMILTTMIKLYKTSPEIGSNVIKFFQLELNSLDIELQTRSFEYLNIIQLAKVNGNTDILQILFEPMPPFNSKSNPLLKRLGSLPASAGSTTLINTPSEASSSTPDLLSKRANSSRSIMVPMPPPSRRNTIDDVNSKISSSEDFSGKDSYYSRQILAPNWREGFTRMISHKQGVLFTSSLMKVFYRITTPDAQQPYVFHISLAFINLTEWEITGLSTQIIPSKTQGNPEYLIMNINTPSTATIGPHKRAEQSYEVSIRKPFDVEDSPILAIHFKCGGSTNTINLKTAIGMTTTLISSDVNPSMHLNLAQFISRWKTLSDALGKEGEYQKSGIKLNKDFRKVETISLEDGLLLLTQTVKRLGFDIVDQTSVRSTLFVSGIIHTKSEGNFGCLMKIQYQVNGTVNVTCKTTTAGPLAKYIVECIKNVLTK

[2] = biological target: the molecule itself; test: FCS molecular brightness (counts per particle per second); living yeast cells, cytoplasm; brightness of GFP-tagged particles compared with 3myeGFP and Ent2-3myeGFP (monomers) or with wild-type Ede1; average of all particles
[3] = biological target: T2, Ede1 (Ede1-3myeGFP / Ede1-3mCherry) (S. cerevisiae, UniProt P34216 1-1381); test: fluorescence cross-correlation spectroscopy (FCCS); living yeast cells, observation volume in the cytoplasm; one protein tagged with (3)myeGFP/eGFP and the other with 3mCherry in the same strain; apparent (effective) KD; interactions up to ~1 μM detectable; settings: partners not purified
T2 construct: Ede1, S. cerevisiae, homolog of mammalian Eps15; expressed from its own locus; also called wild-type Ede1; full-length Ede1; source: S. cerevisiae, chromosomally tagged at the endogenous locus, in living cells; not shown: 3myeGFP, C-terminal, kept; 3mCherry, C-terminal, kept
T2 sequence (looked up): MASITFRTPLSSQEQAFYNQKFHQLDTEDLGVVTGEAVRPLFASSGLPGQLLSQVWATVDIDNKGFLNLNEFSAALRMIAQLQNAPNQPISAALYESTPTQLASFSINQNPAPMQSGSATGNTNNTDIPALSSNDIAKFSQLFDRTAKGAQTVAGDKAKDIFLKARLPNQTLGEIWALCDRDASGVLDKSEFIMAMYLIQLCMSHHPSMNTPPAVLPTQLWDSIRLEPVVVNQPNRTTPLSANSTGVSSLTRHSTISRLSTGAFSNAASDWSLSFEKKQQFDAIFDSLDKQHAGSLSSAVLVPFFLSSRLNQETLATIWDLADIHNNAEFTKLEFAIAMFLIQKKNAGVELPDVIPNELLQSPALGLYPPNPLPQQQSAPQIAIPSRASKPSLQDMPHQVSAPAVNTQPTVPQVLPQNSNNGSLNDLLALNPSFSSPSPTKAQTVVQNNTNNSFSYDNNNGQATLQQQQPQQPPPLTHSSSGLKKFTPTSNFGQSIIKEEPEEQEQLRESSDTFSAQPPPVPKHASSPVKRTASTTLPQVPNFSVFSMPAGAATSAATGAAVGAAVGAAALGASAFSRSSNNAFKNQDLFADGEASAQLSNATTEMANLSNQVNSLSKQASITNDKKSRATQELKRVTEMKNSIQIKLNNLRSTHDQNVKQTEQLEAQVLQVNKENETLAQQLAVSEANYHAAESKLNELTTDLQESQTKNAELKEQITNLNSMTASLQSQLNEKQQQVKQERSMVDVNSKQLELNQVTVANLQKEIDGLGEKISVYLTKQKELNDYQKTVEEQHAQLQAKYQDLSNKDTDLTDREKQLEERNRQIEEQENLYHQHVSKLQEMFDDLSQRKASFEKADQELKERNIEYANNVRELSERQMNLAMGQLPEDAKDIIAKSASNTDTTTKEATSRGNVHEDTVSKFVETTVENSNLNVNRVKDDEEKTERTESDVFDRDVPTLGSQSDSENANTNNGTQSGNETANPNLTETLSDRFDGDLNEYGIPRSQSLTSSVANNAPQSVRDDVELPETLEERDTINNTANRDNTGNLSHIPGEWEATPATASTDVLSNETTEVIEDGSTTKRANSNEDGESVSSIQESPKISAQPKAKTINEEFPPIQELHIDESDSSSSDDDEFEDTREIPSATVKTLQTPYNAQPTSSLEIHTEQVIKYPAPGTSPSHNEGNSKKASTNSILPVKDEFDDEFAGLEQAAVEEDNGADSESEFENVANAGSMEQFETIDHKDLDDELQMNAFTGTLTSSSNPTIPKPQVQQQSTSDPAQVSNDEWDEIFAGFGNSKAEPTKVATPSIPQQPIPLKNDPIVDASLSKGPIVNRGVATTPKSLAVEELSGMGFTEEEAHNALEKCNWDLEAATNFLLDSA

Molecule: Sla1 SH3 domains (from UniProt P32790)
Kd [1]: 56 nM

Kd (Apl3): 37 nM
B1: Apl1 (natural protein, S. cerevisiae, UniProt P27351 1-700, looked up)
chain: MSDQKVFARYKANEIVTDLQHFGVKKFKSNITRRKNALRKIIANLVLGNYGEMSVLFSELLKFWQIEDDLEVKRICHEYIRVIGALKPQQAREALPFIMDDFKSRDEKLQIMALRTLVLVPVKELSDQAFDCIISLVNHKSPPEQVTRTAIYALLDLDEIDHERVLGLSSILHDIVKAQSSSPEVIVAALHTLYSIHEKNANMEPFRIPLELAFDMLELLPELNEWNKATVLEVLTTSVVPQHYLDTHEMIELALPYLQQVNTYVVLNSLKFIMYLLNYVDVIKETLAEKLSNSVIALLDKPPELQFLVLRNVILLLLSRESSLLRLDISYFFIEYNDPIYIKDTKLECLYLLANKETLPRILEELEQYATDIDIQMSRKSVRAIGNLAVKLDEDSVHDCVAVLLDLLEFGVDYVVQEIISVFRNILRKYPNNFKANVTELVKHTEVVQEPESKNAMIWIITQYSDVIPNYLELFRVFSSNMFSETLEVQFSILNSAIKFFIRSPTKETEELCMDLLKGCIDHENNPDLRDKTLMYWRLLSLTKTSRISNAITFESLKSVLDGELPLIEMNTKLDPTVLEELELNIGTIVSIYLKPVSHIFRLNKTKLLPQSPILNPNKDLLPVVGNSFPPTGANRDRQNSESQSSTKSRKTAMMDDYDKPAEKINQLKGKRKSSSNNPSKLSRKPSTLLRKLSMKRPFS
notes: Apl1, subunit of the AP2 complex, S. cerevisiae; also called Apl1-1myeGFP; Apl1-3mCherry; source: chromosomally tagged at the endogenous locus, in the cytoplasm of living S. cerevisiae cells

Kd [3]: 590 nM
B2: Sla2 (natural protein, S. cerevisiae, UniProt P33338 1-968, looked up)
chain: MSRIDSDLQKALKKACSVEETAPKRKHVRACIVYTWDHQSSKAVFTTLKTLPLANDEVQLFKMLIVLHKIIQEGHPSALAEAIRDRDWIRSLGRVHSGGSSYSKLIREYVRYLVLKLDFHAHHRGFNNGTFEYEEYVSLVSVSDPDEGYETILDLMSLQDSLDEFSQIIFASIQSERRNTECKISALIPLIAESYGIYKFITSMLRAMHRQLNDAEGDAALQPLKERYELQHARLFEFYADCSSVKYLTTLVTIPKLPVDAPDVFLINDVDESKEIKFKKREPSVTPARTPARTPTPTPPVVAEPAISPRPVSQRTTSTPTGYLQTMPTGATTGMMIPTATGAANAIFPQATAQMQPDFWANQQAQFANEQNRLEQERVQQLQQQQAQQELFQQQLQKAQQDMMNMQLQQQNQHQNDLIALTNQYEKDQALLQQYDQRVQQLESEITTMDSTASKQLANKDEQLTALQDQLDVWERKYESLAKLYSQLRQEHLNLLPRFKKLQLKVNSAQESIQKKEQLEHKLKQKDLQMAELVKDRDRARLELERSINNAEADSAAATAAAETMTQDKMNPILDAILESGINTIQESVYNLDSPLSWSGPLTPPTFLLSLLESTSENATEFATSFNNLIVDGLAHGDQTEVIHCVSDFSTSMATLVTNSKAYAVTTLPQEQSDQILTLVKRCAREAQYFFEDLMSENLNQVGDEEKTDIVINANVDMQEKLQELSLAIEPLLNIQSVKSNKETNPHSELVATADKIVKSSEHLRVDVPKPLLSLALMIIDAVVALVKAAIQCQNEIATTTSIPLNQFYLKNSRWTEGLISAAKAVAGATNVLITTASKLITSEDNENTSPEQFIVASKEVAASTIQLVAASRVKTSIHSKAQDKLEHCSKDVTDACRSLGNHVMGMIEDDHSTSQQQQPLDFTSEHTLKTAEMEQQVEILKLEQSLSNARKRLGEIRRHAYYNQDDD
notes: Sla2, S. cerevisiae; Each copy carries one of the two tags; also called Sla2-3myeGFP; source: S. cerevisiae, chromosomally tagged at the endogenous locus, in living cells; not shown: 3myeGFP, C-terminal, kept; 3mCherry, C-terminal, kept
molecular brightness per particle relative to 3myeGFP [2]: 2 fold

Kd [3]: 227 nM
B3: Syp1 (natural protein, S. cerevisiae, UniProt P25623 1-870, looked up)
chain: MTEQRTKYADSILTTKSPYEATETIRIRLSQVKLLNKDFYLLFKELANLKRNYAQQLRKIIAENEDITKILNAQMIESNVLTPQEMSAFRFNSLGELRNVWDTVIEELKSDLKSSTEYYNTLDQQVVRELKESVENNTSWRESKDLHSKLSKNAASIEHYSKNNENSSHLEEARRQWDQQSPYLFELFETIDYNRLDTLKNCMLRFQTSFSDYLLNTTKECETVMTKFLAFEPQSEIDRFAKDASQYNFQLSSSSKEVVPNNASPASATGARPVSVSNGAANTEREKKSPQKDKRKSAFGNIGHRLASASSSLTHNDLMNNEFSDSTNNSSLKSKKSSHTLRSKVGSIFGRNKTKNKRQQQSSSNSHIQASITETPNNSSTRVSSTATSSIYQKQRRPTYSSSKSNNWTPGEASDTPPLPPHATPKNVDAPVTADTPPAQTFTPSEVPPSTPQQSSPPTAKEPDSSNLPKTVPISISQPPLQPQSKTKPLPVEPASPSISLPTATVDNQPSGQVDSRPLHIRAPALPPSRKQNFIHNRDSQLYDSLPNHGSGATPTSSSLSSIPQERPVSTLSSQITGELRELNPQATGSSTSLVGQSLFQHSSLDTSQFGLNASIAEVLNASFKDGMLQNSQLIGEIALNYLPNSVMNSPLPIGINLRINNGAKFEKVILNQAFIERVAPEEFKVNPSFIDSRTLGAIKYSIKEPIAPIVIHPVWRFESHQASVVLTVKMSPSLPDEISQIVIEDLVVFVNIDGANATSALSKPQGSFSKEKKRITWRFKEPVVLTRNGEGQRLIARFITDGLAHESAKGVITKFTISETDNVALPHSGAGSGITLTCQELDENNPFGGEWLDVNTKRTLTTGNYHGLA
notes: Syp1, S. cerevisiae endocytic adaptor; Each copy carries one of the two tags; also called Syp1-3myeGFP; source: S. cerevisiae, chromosomally tagged at the endogenous locus, in living cells; not shown: 3myeGFP, C-terminal, kept; 3mCherry, C-terminal, kept
